Assay results taken from PMC7104376 (Nature structural & molecular biology, 2020).

B1: Maf1-id (S. cerevisiae Maf1 lacking the internal non-conserved region, Δ64-194) (natural protein, UniProt P41910 1-395, looked up)
chain: MKFIDELDIERVNQTLNFETNDCKIVGSCDIFTTKAVASDRKLYKTIDQHLDTILQENENYNASSGTATNNVNKRRKSSINERPSNLSLGPFGPINEPSSRKIFAYLIAILNASYPDHDFSSVEPTDFVKTSLKTFISKFENTLYSLGRQPEEWVWEVINSHMTLSDCVLFQYSPSNSFLEDEPGYLWNLIGFLYNRKRKRVAYLYLICSRLNSSTGEVEDALAKKPQGKLIIDDGSNEYEGEYDFTYDENVIDDKSDQEESLQ

Columns and labels:
[1] = target: T1, C34, subunit of S. cerevisiae RNA polymerase III (S. cerevisiae, UniProt P32910 1-317); assay: cryo-EM structure
T1 sequence: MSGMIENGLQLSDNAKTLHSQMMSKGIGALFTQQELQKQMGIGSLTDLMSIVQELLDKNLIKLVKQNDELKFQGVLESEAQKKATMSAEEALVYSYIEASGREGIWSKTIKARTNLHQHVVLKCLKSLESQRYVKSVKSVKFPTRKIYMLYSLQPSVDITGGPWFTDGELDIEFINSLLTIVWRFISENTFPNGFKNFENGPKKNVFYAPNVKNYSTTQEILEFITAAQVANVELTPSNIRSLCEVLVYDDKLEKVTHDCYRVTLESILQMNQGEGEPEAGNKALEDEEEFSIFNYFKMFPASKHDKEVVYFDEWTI

[2] = target: T2, C160, subunit of S. cerevisiae RNA polymerase III (S. cerevisiae, UniProt P04051 1-1460); assay: cryo-EM structure
T2 sequence: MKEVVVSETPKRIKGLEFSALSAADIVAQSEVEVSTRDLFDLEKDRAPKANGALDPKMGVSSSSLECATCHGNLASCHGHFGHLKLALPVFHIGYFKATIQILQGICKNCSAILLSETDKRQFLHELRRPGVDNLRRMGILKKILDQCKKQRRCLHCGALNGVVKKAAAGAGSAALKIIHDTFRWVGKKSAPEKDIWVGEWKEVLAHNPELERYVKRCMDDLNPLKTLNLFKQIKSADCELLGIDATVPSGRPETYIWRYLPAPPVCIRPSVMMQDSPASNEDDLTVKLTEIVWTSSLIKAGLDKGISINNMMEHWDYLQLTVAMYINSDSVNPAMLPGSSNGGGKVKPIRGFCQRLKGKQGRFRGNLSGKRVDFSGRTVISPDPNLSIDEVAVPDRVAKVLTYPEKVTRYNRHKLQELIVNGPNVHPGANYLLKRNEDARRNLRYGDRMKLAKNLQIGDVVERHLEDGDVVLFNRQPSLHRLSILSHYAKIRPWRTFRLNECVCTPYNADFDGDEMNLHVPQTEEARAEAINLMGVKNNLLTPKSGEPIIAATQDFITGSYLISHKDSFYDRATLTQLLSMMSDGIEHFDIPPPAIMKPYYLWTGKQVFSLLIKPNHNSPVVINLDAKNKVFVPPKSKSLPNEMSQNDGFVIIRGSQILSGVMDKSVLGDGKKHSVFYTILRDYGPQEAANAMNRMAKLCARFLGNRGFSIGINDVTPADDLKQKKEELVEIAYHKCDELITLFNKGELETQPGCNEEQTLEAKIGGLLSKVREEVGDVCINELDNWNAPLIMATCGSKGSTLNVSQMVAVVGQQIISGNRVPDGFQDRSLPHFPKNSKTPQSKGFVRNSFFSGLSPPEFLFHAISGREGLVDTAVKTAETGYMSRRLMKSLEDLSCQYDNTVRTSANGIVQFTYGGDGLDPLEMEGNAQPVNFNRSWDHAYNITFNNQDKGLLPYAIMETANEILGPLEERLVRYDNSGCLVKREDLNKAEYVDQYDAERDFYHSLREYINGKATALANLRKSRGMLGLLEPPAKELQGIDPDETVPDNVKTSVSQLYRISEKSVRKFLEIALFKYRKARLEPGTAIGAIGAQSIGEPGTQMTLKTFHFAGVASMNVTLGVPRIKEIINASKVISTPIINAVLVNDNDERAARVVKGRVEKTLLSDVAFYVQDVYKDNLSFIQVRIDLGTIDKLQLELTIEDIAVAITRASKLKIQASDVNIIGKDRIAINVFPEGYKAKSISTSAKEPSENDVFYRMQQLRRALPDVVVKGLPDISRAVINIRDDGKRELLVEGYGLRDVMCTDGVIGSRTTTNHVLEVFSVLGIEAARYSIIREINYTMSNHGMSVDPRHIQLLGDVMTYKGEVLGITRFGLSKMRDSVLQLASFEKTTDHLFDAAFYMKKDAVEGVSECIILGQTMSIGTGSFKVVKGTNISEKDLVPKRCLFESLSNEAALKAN

Maf1-id T33E/T34E = target: T3, Maf1-id T33E/T34E (S. cerevisiae, UniProt P41910 1-395, Δ64-194 | T33E | T34E); assay: pull-down
T3 sequence (looked up): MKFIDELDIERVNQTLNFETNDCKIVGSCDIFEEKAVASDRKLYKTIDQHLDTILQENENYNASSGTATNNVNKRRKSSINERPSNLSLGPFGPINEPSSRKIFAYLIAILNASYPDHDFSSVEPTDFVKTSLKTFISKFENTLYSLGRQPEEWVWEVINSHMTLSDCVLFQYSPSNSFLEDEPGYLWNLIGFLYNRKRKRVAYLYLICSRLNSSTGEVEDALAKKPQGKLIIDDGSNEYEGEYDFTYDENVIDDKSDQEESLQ

Maf1-id L318S/W319S = target: T4, Maf1-id L318S/W319S (S. cerevisiae, UniProt P41910 1-395, Δ64-194 | L318S | W319S); assay: pull-down
T4 sequence (looked up): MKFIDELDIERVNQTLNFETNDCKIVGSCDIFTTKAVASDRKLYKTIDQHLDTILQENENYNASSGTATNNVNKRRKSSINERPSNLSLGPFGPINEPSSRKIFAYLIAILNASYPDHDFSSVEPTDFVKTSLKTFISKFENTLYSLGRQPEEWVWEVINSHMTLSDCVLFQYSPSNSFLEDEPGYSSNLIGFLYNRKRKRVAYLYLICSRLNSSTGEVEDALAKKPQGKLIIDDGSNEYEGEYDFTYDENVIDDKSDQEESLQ

Maf1-id D248A/D250A = target: T5, Maf1-id D248A/D250A (S. cerevisiae, UniProt P41910 1-395, Δ64-194 | D248A | D250A); assay: pull-down
T5 sequence (looked up): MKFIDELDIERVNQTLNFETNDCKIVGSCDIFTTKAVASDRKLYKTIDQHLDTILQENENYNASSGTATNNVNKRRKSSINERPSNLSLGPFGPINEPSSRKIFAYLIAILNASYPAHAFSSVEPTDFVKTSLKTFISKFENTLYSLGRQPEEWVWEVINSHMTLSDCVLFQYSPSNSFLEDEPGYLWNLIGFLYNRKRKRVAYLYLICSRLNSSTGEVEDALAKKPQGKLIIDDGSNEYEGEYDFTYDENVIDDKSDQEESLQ

[3] = target: B1; assay: pull-down

Measured: binding result

B1
binds: [1] | [2]

B2: His-tagged C34 1-156 (the two N-terminal WH domains of C34) (domain or fragment, S. cerevisiae, UniProt P32910 1-156, looked up)
chain: MSGMIENGLQLSDNAKTLHSQMMSKGIGALFTQQELQKQMGIGSLTDLMSIVQELLDKNLIKLVKQNDELKFQGVLESEAQKKATMSAEEALVYSYIEASGREGIWSKTIKARTNLHQHVVLKCLKSLESQRYVKSVKSVKFPTRKIYMLYSLQPS
binds: Maf1-id T33E/T34E | Maf1-id L318S/W319S | Maf1-id D248A/D250A | [3]
